Assay results published in patent US20190336427A1, “NOVEL PROTEIN TRANSDUCTION DOMAIN AND USE THEREOF” (BIOCELTRAN CO., LTD., priority 2016, published 2019).
Ends that are not written are not given here.

What was measured:
[1] = molecular target: EGF receptors in cells (mouse fibroblasts, Balb/c 3T3 clone A31 cells) (mouse) (UniProt Q01279); experiment: cell-based or functional assay
HaCaT cells = experiment: Cytotoxicity of cell-penetrating peptides (WST, cell viability); details: HaCaT cells, 2.5, 5 and 10 μM peptide, 24 hours
Protocol: Cytotoxicity was evaluated to identify whether or not the peptides of the present invention could be harmlessly used to deliver polymers in vivo.
HaCaT cells cultured in DMEM containing 10% FBS were seeded in a unit dose of 2.5×10^4 on a 96-well plate, cultured for 24 hours and washed with HBSS twice. Cell-penetrating peptides, PEP1 and STeP, were dissolved at different concentrations of 50 μM, 100 μM and 200 μM in D.W. and diluted in a medium such that the final concentrations reached 2.5 μM, 5 μM and 10 μM, and the cells were treated with the resulting peptides and then reacted for 24 hours at 37° C. in a 5% CO2 incubator. After culture, the supernatant was removed, a WST solution was diluted in a medium in a ratio of 1:9 and the cells were treated with the medium. After culturing for 3 hours, absorbance was measured at 450 nm, and cell viability was calculated for cells of a peptide non-treatment group and cells of a peptide treatment group.

porcine skin [2] = experiment: Skin penetration of cell-penetrating peptide-FGF2 mixture by tissue staining, Franz cells with porcine skin; format: in vitro ADME; details: 500 μg, 24 hours
Protocol: For skin penetration analysis of FGF2 through tissue staining, Franz cells using the porcine skin were treated with equal amounts (500 μg) of FGF2, PEP1-FGF2 and a STeP-FGF2 mixture. After 24 hours, the porcine skin between the Franz cells was taken out, washed with distilled water and subjected to tissue staining. The porcine skin site exposed to donor cells was cut and then immobilized in 10% buffered formalin to produce a paraffin block, and tissues were sectioned to 7 μm using a microtome. Then, the tissues were mounted on a slide, paraffin was removed, the residue was hydrated and tissue fragments were blocked for 30 minutes. The blocked tissues were treated with […] (cell signaling, green) and reacted at 4° C. for 18 hours. On the following day, the resulting tissues were washed with PBST, treated with an Alexa Fluor 488 secondary antibody at room temperature for 2 hours and washed with PBST again. Then, the tissue fragments were dyed with a solution of a nuclear staining reagent (DAPI) diluted at 1/5000 in PBS in the absence of light for 10 minutes and washed with PBS three times. The tissue fragments were mounted and then analyzed with a confocal scanning laser microscope.

porcine skin [3] = experiment: Skin penetration of cell-penetrating peptide-FITC mixture, Franz cells with porcine skin; format: in vitro ADME; details: 100 μM mixture, FITC:peptide molar ratio 1:0 and 1:2
Protocol: Franz cells (diameter of 9 mm) were used in order to identify whether or not penetration of FITC into the skin as well as cells was improved under the condition of non-covalent bonding to STeP.
FITC and cell-penetrating peptides (PEP1, STeP) dissolved in borax buffer (pH 8.0) were prepared. The FITC and cell-penetrating peptides (PEP1, STeP) were mixed in a molar ratio of 1:0 and 1:2, and reacted at 37° C. for 30 minutes, and the top of Franz cells were treated with 100 μM of the finally obtained cell-penetrating peptide-FITC mixture. The porcine skin was isolated and washed with PBS three times. After washing, the cryo mold was treated with an OCT embedding matrix (Cell Path Ltd., UK) and tissues were frozen at −70° C. The frozen tissues were cross-sectioned to a thickness of 7 μm at −20° C. using a cryotome (HM520, Germany) to produce fragment slides. To dye the nucleus of the skin cells, tissue fragments fixed to a slide glass were dyed with a solution of a nuclear staining reagent (DAPI) diluted at 1/5000 in PBS in the absence of light for 10 minutes and washed with PBS three times. The resulting cells were mounted and then analyzed with a confocal scanning laser microscope.

PEP1-EGF recombinant protein (from UniProt P01133 23-1207) (ligand)
Cell proliferation activity (unit/mM), WST assay on Balb/c 3T3 clone A31 cells [1]: 1.39e+07 unit/mM

KETWWETWWTEWSQPYGRKKRRQRRRC [STeP]
cytotoxicity (cell viability) (HaCaT cells): did not exhibit cytotoxicity

FGF2: fibroblast growth factor-2, basic fibroblast growth factor
skin penetration of FGF2 (delivery into porcine skin tissues) (porcine skin [2]): not delivered into porcine skin tissues at all

fluorescein isothiocyanate [FITC]
skin penetration of FITC (porcine skin [3]): present in the cornified layer of the porcine skin
